{"source": "patent US20220213181A1", "about": "(Novartis, published 2022)", "binders": {"B1": {"name": "NEG276-LALA (antibody, human IgG1, kappa, L234A L235A)", "heavy": "not shown", "light": "EIVMTQSPATLSVSPGERATLSCKASQDIGSNLNWLQQKPGQAPRRLIYAVSNRGPGIPARFSGSRSGSEYTLTISSLQSEDFAVYYCLQYASSPWTFGQGTKVEIKRTVAAPSVFIFPPSDEQLKSGTASVVCLLNNFYPREAKVQWKVDNALQSGNSQESVTEQDSKDSTYSLSSTLTLSKADYEKHKVYACEVTHQGLSSPVTKSFNRGEC"}}, "target": "T1, Rat ANGPTL4(24-405)-FLAG-His6-Avi (rat, UniProt Q6TMA8 24-405, biotin on the C-terminal Avi tag (BirA) where the protein is immobilised)", "T1 sequence": "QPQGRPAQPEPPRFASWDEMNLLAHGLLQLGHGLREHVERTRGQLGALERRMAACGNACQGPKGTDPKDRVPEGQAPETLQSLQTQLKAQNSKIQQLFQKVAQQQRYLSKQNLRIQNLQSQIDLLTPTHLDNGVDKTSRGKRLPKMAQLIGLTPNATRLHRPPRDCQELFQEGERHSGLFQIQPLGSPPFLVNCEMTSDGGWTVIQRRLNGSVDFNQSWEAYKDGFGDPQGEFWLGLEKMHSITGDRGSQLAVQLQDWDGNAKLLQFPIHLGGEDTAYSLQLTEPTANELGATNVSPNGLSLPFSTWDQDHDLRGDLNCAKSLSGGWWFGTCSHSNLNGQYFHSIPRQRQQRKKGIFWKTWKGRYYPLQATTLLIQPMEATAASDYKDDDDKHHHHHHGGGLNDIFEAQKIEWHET", "assay": "Octet (ForteBio) kinetics, biotinylated antigen on streptavidin sensor, IgG in solution; Octet kinetics, rat ANGPTL4 on the sensor, antibody up to 25 nM; run 2"}
{"binder": "B1", "values": [{"measurement": "koff", "result": 0.0011, "unit": "s⁻¹"}, {"measurement": "kon", "result": 170000, "unit": "M⁻¹ s⁻¹"}]}
